Test results published in paper doi:10.1101/683441.
Each block holds one molecule with its values, some of them ahead of it.

Target: GST-tagged Nedd4-2, full length (mouse)
Experiment: pull-down

GST-tagged Nedd4-2, full length (mouse), sequence (Q8CFI0 whole entry): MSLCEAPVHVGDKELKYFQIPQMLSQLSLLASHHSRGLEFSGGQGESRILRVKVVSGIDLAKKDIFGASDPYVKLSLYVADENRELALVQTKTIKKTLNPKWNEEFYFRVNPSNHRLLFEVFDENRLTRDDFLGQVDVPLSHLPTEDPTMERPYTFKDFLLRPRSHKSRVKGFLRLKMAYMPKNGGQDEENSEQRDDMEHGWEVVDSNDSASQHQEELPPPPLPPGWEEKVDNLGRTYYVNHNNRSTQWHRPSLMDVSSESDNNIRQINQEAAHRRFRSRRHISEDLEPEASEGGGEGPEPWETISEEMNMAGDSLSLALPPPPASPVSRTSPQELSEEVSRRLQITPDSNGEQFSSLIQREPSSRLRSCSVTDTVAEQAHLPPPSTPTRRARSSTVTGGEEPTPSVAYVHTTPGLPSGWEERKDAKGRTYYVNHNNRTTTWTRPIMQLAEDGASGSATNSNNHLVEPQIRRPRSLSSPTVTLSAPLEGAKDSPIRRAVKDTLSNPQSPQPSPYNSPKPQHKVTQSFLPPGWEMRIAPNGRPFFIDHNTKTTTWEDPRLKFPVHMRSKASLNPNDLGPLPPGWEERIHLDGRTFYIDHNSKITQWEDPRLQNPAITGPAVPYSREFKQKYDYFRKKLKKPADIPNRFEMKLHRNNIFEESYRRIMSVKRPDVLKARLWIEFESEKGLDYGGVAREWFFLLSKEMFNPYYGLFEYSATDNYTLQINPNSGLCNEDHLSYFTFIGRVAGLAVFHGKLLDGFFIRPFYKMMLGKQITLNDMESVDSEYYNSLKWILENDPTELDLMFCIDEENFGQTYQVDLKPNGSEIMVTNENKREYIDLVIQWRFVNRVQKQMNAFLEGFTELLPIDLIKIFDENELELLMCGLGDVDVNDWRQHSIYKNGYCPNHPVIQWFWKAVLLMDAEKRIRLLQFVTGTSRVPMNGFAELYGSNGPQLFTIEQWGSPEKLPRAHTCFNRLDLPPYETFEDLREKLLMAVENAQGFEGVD

- fold bound against GST-N4-1: 2 fold
Molecule: HA-tagged Connexin43 (gap junction alpha 1 protein) (from UniProt P23242 1-382) (natural protein)

- fold bound against GST-N4-1: 2 fold
B1: HA-tagged Kir4.1 (inwardly rectifying K+ channel 4.1) (natural protein)
chain: MTSVAKVYYSQTTQTESRPLVAPGIRRRRVLTKDGRSNVRMEHIADKRFLYLKDLWTTFIDMQWRYKLLLFSATFAGTWFLFGVVWYLVAVAHGDLLELGPPANHTPCVVQVHTLTGAFLFSLESQTTIGYGFRYISEECPLAIVLLIAQLVLTTILEIFITGTFLAKIARPKKRAETIRFSQHAVVASHNGKPCLMIRVANMRKSLLIGCQVTGKLLQTHQTKEGENIRLNQVNVTFQVDTASDSPFLILPLTFYHVVDETSPLKDLPLRSGEGDFELVLILSGTVESTSATCQVRTSYLPEEILWGYEFTPAISLSASGKYIADFSLFDQVVKVASPSGLRDSTVRYGDPEKLKLEESLREQAEKEGSALSVRISNV
